Laboratory results taken from patent US20020151683A1 (MOGAM BIOTECHNOLOGY RESEARCH INSTITUTE, published 2002).

B1: X7 peptide derived from HBV X protein (positions 126-134) (peptide)
peptide: EIRLKVFVL
B2: X6 peptide derived from HBV X protein (positions 115-123) (peptide)
peptide: CLFKDWEEL
B3: X3 peptide derived from HBV X protein (positions 052-060) (peptide)
peptide: HLSLRGLFV

The binders below were run against T1, HLA-A2.1, a human MHC Class I molecule, at the surface of T2 cell (human) (assay: T2 cell MHC stabilisation assay, peptide 1-100 ug/ml, flow cytometry with BB7.2 anti-HLA-A2.1 and FITC anti-mouse Ig).
T1 construct: detected with BB7.2 antibody against HLA-A2.1; also called MHC Class I molecules at the surface of T2 cell
Method: Seven different peptides including the peptides as disclosed in Table 1 above which were derived from HBV X protein were synthesized chemically and dissolved in phosphate buffered saline (hereinafter, referred to as “PBS”). In order to investigate whether the peptides can bind to MHC Class I molecules associated with induction of CTL, each peptide was added to T2 cell line in a concentration of 100, 64, 32, 16, 8, 4, 2 and 1 μg/ml, respectively, and reacted at 37° C. for 4 hours. And then, the cells were washed with PBS to remove unreacted peptides, added with BB7.2 antibody against HLA-A2.1, a human MHC Class I molecule, and reacted at 4° C. for 1 hour. The cells were washed with PBS again, added with fluorescein isothiocyanate (FITC)-conjugated anti-mouse immunoglobulin antibody, and reacted at 4° C. for 1 hour. Then, fluorescence of the cells was determined using fluorocytometer (FACScan, BECTON DICKINSON) and the results were shown in FIG. 1.

Binder	binding result
B1	binds
B2	binds
B3	binds
